# T1: 合成的G6PC多肽 (synthetic G6PC immunogen peptide, sequence range 80-120aa) (human) (UniProt P35575)
# T1 sequence (peptide, looked up): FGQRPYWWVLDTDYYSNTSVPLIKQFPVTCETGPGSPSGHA
# Biological target: T1, 合成的G6PC多肽 (synthetic G6PC immunogen peptide, sequence range 80-120aa) (human)
# Assay: indirect ELISA, serial two-fold dilution of the antibody; coating antigen not stated (taken to be the immunogen peptide)
binder,measurement,value
"兔单克隆抗体OTIR5G10 (rabbit anti-human glucose-6-phosphatase (G6PC) monoclonal antibody OTIR5G10) (antibody, V domains shown) VH: QSVEESGGRLVTPGTPLTLTCTVSGADLSTYGVIWVRQAPGKGLEYIAAIVSGGRPYYRHWAKGRFTISKTSSTTVELKITSPTTEDTATYFCVLGNLWGQGTLVTVSS VL: AQVLTQTASPVSAAVGGTVTINCQASQSVYSNNYLSWFQQKPGQPPKQLIYRASKLASGVSSRFKGSGSGTQFTLTISDVQCDDAATYYCLGGYDCSSADFGGGTEVVVK",抗体效价 (ELISA titer),1.2e+07
